Results reported in patent US20160114035A1 (published 2016).

B1: E4.H12 (peptide)
peptide: AAAEFVAAWTLHAAA
B2: N4.Y9.H12 (peptide)
peptide: AAANFVAAYTLHAAA
B3: H4.N9.H12 (peptide)
peptide: AAAHFVAANTLHAAA
B4: H4.F9.E14 (peptide)
peptide: AAAHFVAAFTLKAEA
B5: E4.Y9.H12 (peptide)
peptide: AAAEFVAAYTLHAAA
B6: SEQ ID NO: 4 (peptide)
peptide: AAAKFVAAWTLKAAA
B7: F4.N9.H12 (peptide)
peptide: AAAFFVAANTLHAAA
B8: H4.H12 (peptide)
peptide: AAAHFVAAWTLHAAA
B9: Y4.N9.H12 (peptide)
peptide: AAAYFVAANTLHAAA
B10: W4.N9.H12 (peptide)
peptide: AAAWFVAANTLHAAA
B11: Y4.F9.H12 (peptide)
peptide: AAAYFVAAFTLHAAA
B12: Y4.H12 (peptide)
peptide: AAAYFVAAWTLHAAA
B13: F4.N9.D14 (peptide)
peptide: AAAFFVAANTLKADA

What follows are binders tested against DRB1*1302 (assay: binding to purified HLA).

| IC50 [nM] | Binder |
| --- | --- |
| 1150 | B1 |
| 1420 | B2 |
| 47 | B3 |
| 801 | B4 |
| 1450 | B5 |

These binders were tested against DRB1*0101 (assay: binding to purified HLA).

| IC50 [nM] | Binder |
| --- | --- |
| 5.1 | B1 |
| 2.7 | B2 |
| 4.1 | B3 |
| 6.8 | B4 |
| 3.9 | B5 |

The binders below were run against DRB5*0101 (assay: binding to purified HLA).

| IC50 [nM] | Binder |
| --- | --- |
| 48 | B1 |
| 20 | B2 |
| 33 | B3 |
| 19 | B4 |
| 52 | B5 |

The binders below were run against DRB1*1501 (assay: binding to purified HLA).

| IC50 [nM] | Binder |
| --- | --- |
| 51 | B1 |
| 4.2 | B2 |
| 79 | B3 |
| 31 | B4 |
| 6.9 | B5 |

These binders were tested against DRB1*0404 (assay: binding to purified HLA).

| IC50 [nM] | Binder |
| --- | --- |
| 4.1 | B1 |
| 5.2 | B2 |
| 6.8 | B3 |
| 8.1 | B4 |
| 3.2 | B5 |

These binders were tested against DRB1*0401 (assay: binding to purified HLA).

| IC50 [nM] | Binder |
| --- | --- |
| 3.1 | B1 |
| 1.8 | B2 |
| 4.5 | B3 |
| 6.4 | B4 |
| 2.3 | B5 |

Each binder was assayed against DRB1*1101 (assay: binding to purified HLA).

| IC50 [nM] | Binder |
| --- | --- |
| 38 | B1 |
| 16 | B2 |
| 22 | B3 |
| 41 | B4 |
| 27 | B5 |

The binders below were run against DRB4*0101 (assay: binding to purified HLA).

| IC50 [nM] | Binder |
| --- | --- |
| 350 | B1 |
| 567 | B2 |
| 862 | B3 |
| 526 | B4 |
| 448 | B5 |

The binders below were run against DRB1*0802 (assay: binding to purified HLA).

| IC50 [nM] | Binder |
| --- | --- |
| 24 | B1 |
| 7.5 | B2 |
| 17 | B3 |
| 19 | B4 |
| 13 | B5 |

Each binder was assayed against DRB1*0901 (assay: binding to purified HLA).

| IC50 [nM] | Binder |
| --- | --- |
| 44 | B1 |
| 25 | B2 |
| 37 | B3 |
| 46 | B4 |
| 28 | B5 |

Each binder was assayed against DRB1*0301 (assay: binding to purified HLA).

| IC50 [nM] | Binder |
| --- | --- |
| 134 | B1 |
| 171 | B2 |
| 361 | B3 |
| 855 | B4 |
| 144 | B5 |

These binders were tested against DRB1*0701 (assay: binding to purified HLA).

| IC50 [nM] | Binder |
| --- | --- |
| 97 | B1 |
| 67 | B2 |
| 76 | B3 |
| 49 | B4 |
| 161 | B5 |

The binders below were run against DRB1*0405 (assay: binding to purified HLA).

| IC50 [nM] | Binder |
| --- | --- |
| 27 | B1 |
| 19 | B2 |
| 18 | B3 |
| 8.1 | B4 |
| 17 | B5 |

Target: DRB1*1302
Assay: binding to purified HLA
Remark: another data set of the same source

| IC50 [nM] | Binder |
| --- | --- |
| 648 | B6 |
| 64 | B7 |
| 1190 | B8 |
| 54 | B9 |
| 38 | B10 |
| 2560 | B11 |
| 1560 | B12 |
| 187 | B13 |

Target: DRB1*0101
Assay: binding to purified HLA
Remark: another data set of the same source

| IC50 [nM] | Binder |
| --- | --- |
| 3.3 | B6 |
| 6.5 | B7 |
| 4.2 | B8 |
| 4.5 | B9 |
| 3.8 | B10 |
| 3.4 | B11 |
| 3.7 | B12 |
| 3.4 | B13 |

Target: DRB5*0101
Assay: binding to purified HLA
Remark: another data set of the same source

| IC50 [nM] | Binder |
| --- | --- |
| 5.4 | B6 |
| 26 | B7 |
| 23 | B8 |
| 16 | B9 |
| 22 | B10 |
| 18 | B11 |
| 15 | B12 |
| 4.4 | B13 |

Target: DRB1*1501
Assay: binding to purified HLA
Remark: another data set of the same source

| IC50 [nM] | Binder |
| --- | --- |
| 9.8 | B6 |
| 70 | B7 |
| 12 | B8 |
| 53 | B9 |
| 101 | B10 |
| 16 | B11 |
| 16 | B12 |
| 103 | B13 |

Target: DRB1*0404
Assay: binding to purified HLA
Remark: another data set of the same source

| IC50 [nM] | Binder |
| --- | --- |
| 2.9 | B6 |
| 4.1 | B7 |
| 2.5 | B8 |
| 5.2 | B9 |
| 5.5 | B10 |
| 0.67 | B11 |
| 2.6 | B12 |
| 4.5 | B13 |

Target: DRB1*0401
Assay: binding to purified HLA
Remark: another data set of the same source

| IC50 [nM] | Binder |
| --- | --- |
| 2.6 | B6 |
| 3.8 | B7 |
| 2.5 | B8 |
| 3.3 | B9 |
| 2.9 | B10 |
| 1 | B11 |
| 2.6 | B12 |
| 4 | B13 |

Target: DRB1*1101
Assay: binding to purified HLA
Remark: another data set of the same source

| IC50 [nM] | Binder |
| --- | --- |
| 11 | B6 |
| 42 | B7 |
| 14 | B8 |
| 14 | B9 |
| 16 | B10 |
| 17 | B11 |
| 18 | B12 |
| 46 | B13 |

Target: DRB4*0101
Assay: binding to purified HLA
Remark: another data set of the same source

| IC50 [nM] | Binder |
| --- | --- |
| 207 | B6 |
| 876 | B7 |
| 267 | B8 |
| 703 | B9 |
| 606 | B10 |
| 81 | B11 |
| 279 | B12 |
| 5520 | B13 |

Target: DRB1*0802
Assay: binding to purified HLA
Remark: another data set of the same source

| IC50 [nM] | Binder |
| --- | --- |
| 5.2 | B6 |
| 28 | B7 |
| 9.3 | B8 |
| 12 | B9 |
| 8.6 | B10 |
| 5.9 | B11 |
| 9.7 | B12 |
| 16 | B13 |

Target: DRB1*0901
Assay: binding to purified HLA
Remark: another data set of the same source

| IC50 [nM] | Binder |
| --- | --- |
| 28 | B6 |
| 31 | B7 |
| 21 | B8 |
| 21 | B9 |
| 33 | B10 |
| 13 | B11 |
| 18 | B12 |
| 18 | B13 |

Target: DRB1*0301
Assay: binding to purified HLA
Remark: another data set of the same source

| IC50 [nM] | Binder |
| --- | --- |
| 209 | B6 |
| 286 | B7 |
| 198 | B8 |
| 130 | B9 |
| 174 | B10 |
| 126 | B11 |
| 119 | B12 |
| 140 | B13 |

Target: DRB1*0701
Assay: binding to purified HLA
Remark: another data set of the same source

| IC50 [nM] | Binder |
| --- | --- |
| 49 | B6 |
| 82 | B7 |
| 53 | B8 |
| 49 | B9 |
| 43 | B10 |
| 78 | B11 |
| 55 | B12 |
| 74 | B13 |

Target: DRB1*0405
Assay: binding to purified HLA
Remark: another data set of the same source

| IC50 [nM] | Binder |
| --- | --- |
| 25 | B6 |
| 27 | B7 |
| 12 | B8 |
| 13 | B9 |
| 21 | B10 |
| 4.4 | B11 |
| 6.9 | B12 |
| 9.5 | B13 |
